Measured values published in patent publication US8871909B2, “Antibodies inhibiting c-Met dimerization and uses thereof” (Pierre Fabre Medicament, priority 2007, dated 2014).

Experiments:
c-Met = assay: BRET analysis of c-Met dimerization on c-Met transfected CHO cells; assay type: cell-based; conditions: CHO cells expressing C-Met-Rluc and C-Met-K1100A-YFP, supernatants
Description: The technology BRET, used in the step iii) of the process, is well known by the person skill in the art and will be detailed in the following examples. More particularly, BRET (Bioluminescence Resonance Energy Transfer) is a non-radiative energy transfer occurring between a bioluminescent donor (Renilla Luciferase (Rluc)) and a fluorescent acceptor, a mutant of GFP (Green Fluorescent Protein) or YFP (Yellow fluorescent protein). In the present case EYFP (Enhanced Yellow Fluorescent Protein) was used. The efficacy of transfer depends on the orientation and the distance between the donor and the acceptor. Then, the energy transfer can occur only if the two molecules are in close proximity (1-10 nm). This property is used to generate protein-protein interaction assays. Indeed, in order to study the interaction between two partners, the first one is genetically fused to the Renilla Luciferase and the second one to the yellow mutant of the GFP. Fusion proteins are generally, but not obligatory, expressed in mammalian cells. In presence of its membrane permeable substrate (coelenterazine), Rluc emits blue light. If the GFP mutant is closer than 10 nm from the Rluc, an energy transfer can occur and an additional yellow signal can be detected. The BRET signal is measured as the ratio between the light emitted by the acceptor and the light emitted by the donor. So the BRET signal will increase as the two fusion proteins are brought into proximity or if a conformational change bring Rluc and GFP mutant closer.
Then antibodies inhibiting at least 50% cell proliferation were evaluated as supernatants by BRET analysis on c-Met transfected cells. For that purpose, CHO stable cell lines expressing C-Met-Rluc or C-Met-Rluc and C-Met-K1100A-YFP were generated. Cells were distributed in white 96 well microplates in DMEM-F12/FBS 5% culture medium one or two days before BRET experiments. Cells were first cultured at 37° C. with CO2 5% in order to allow cell attachment to the plate. Cells were then starved with 200 μl DMEM/well overnight. Immediately prior to the experiment, DMEM was removed and cells quickly washed with PBS. Cells were incubated in PBS in the presence or absence of antibodies to be tested or reference compounds, 10 min at 37° C. prior to the addition of coelenterazine with or without HGF in a final volume of 50 μl. […]
BRET ratio has been defined previously [Angers et al., Proc. Natl. Acad. Sci. USA, 2000, 97:3684-3689] as: [(emission at 530 nm)−(emission at 485 nm)×Cf]/(emission at 485 nm), where Cf corresponds to (emission at 530 nm)/(emission at 485 nm) for cells expressing Rluc fusion protein alone in the same experimental conditions. […] For the sake of readability, results are expressed in milliBRET units (mBU); mBU corresponds to the BRET ratio multiplied by 1000.

SEMA domain = target: T1, SEMA domain (Homo sapiens, UniProt P08581); assay: ELISA recognition of recombinant SEMA domain; assay type: binding
T1 construct: the recombinant c-Met-Fc protein and the recombinant SEMA domain
T1 sequence (P08581 27-515 limits assumed): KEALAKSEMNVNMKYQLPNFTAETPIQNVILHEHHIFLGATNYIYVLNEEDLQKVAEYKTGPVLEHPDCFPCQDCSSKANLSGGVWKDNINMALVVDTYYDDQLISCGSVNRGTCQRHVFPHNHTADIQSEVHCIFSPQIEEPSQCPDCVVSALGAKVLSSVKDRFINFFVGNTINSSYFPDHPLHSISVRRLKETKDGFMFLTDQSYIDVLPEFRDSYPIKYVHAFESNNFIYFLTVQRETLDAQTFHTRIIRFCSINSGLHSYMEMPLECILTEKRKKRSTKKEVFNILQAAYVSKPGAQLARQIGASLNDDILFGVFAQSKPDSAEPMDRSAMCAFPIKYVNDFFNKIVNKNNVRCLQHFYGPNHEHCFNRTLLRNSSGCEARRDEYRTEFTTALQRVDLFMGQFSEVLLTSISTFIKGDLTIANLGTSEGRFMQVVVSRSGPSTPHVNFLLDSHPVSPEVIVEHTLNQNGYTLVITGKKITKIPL
Experimental: To characterize the pattern of recognition of the 3 selected antibodies, 3 ELISA have been set up with the recombinant c-Met protein, its monomeric fragment (obtained by cleavage of the recombinant c-Met-Fc protein and the recombinant SEMA domain.
To perform these ELISA the human dimeric c-Met protein (R&D sytems, cat#358MT) is coated at the concentration of 0.7 μg/ml in PBS overnight at 4° C. After saturation of the plates (Costar #3690) with a 0.5% gelatin solution 2 hours at 37° C., hybridoma supernatants are incubated 1 hour at 37° C. Once rinsed with PBS, the anti-mouse HRP-antibody (Jackson ImmunoResearch, catalog #115-035-164) is added to each well at a 1/5000 dilution in ELISA buffer (0.1% gelatin/0.05% Tween 20 in PBS) and the plates incubated for 1 hour at 37° C. […] The reaction is left to occur for 5 min at room temperature. The reaction is stopped by the addition of 50 μl/well of a 1 M H2SO4 solution and read on a plate reader at 450 nm. The same kind of protocol was performed on monomeric c-Met and SEMA domain but in that cases proteins were coated at 5 and 3 μg/ml respectively.

HGF-cMet = target: T2, HGF-cMet (Homo sapiens, UniProt P08581); assay: HGF-cMet competition assay (ELISA); assay type: binding; conditions: purified murine antibodies
T2 construct: recombinant c-Met-Extra-Cellular Domain (ECD) fused to an human IgG Fc domain
T2 sequence (P08581 25-932 limits assumed): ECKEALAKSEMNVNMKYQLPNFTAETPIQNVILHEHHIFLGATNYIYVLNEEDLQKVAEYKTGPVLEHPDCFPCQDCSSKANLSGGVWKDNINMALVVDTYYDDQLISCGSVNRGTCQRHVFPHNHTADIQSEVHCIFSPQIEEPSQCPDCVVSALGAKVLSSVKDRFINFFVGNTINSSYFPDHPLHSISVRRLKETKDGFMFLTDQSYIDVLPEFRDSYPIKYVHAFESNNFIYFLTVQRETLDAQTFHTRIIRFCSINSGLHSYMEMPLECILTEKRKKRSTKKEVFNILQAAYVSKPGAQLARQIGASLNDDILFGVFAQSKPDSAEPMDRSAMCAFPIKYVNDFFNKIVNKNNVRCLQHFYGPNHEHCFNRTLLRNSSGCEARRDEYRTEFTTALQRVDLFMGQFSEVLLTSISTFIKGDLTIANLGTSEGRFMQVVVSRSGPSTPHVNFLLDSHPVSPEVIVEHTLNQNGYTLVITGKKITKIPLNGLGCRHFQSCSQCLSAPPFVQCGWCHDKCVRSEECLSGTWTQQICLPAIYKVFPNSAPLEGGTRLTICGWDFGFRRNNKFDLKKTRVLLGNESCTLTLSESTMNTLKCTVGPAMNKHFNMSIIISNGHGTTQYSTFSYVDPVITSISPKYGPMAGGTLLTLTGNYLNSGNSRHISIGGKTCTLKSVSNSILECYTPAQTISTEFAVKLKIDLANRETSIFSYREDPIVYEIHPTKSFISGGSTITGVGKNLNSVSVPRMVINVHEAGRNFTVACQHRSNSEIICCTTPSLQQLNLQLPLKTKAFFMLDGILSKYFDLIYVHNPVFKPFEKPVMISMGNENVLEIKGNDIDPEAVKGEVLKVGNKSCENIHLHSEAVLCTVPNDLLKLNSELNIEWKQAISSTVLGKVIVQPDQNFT
Description: FIG. 54: HGF-cMet competition assay. In this ELISA-based assay, recombinant Fc-cMET residual binding to plastic coated HGF in the presence of purified murine monoclonal antibodies 11E1, 224G11 and 227H1 was detected with […] and measured at 450 nm;
FIG. 58: HGF-cMet competition assay of 227H1 murine and recombinant antibodies. In this ELISA-based assay, recombinant Fc-cMet residual binding to plastic coated HGF in the presence of the different forms of the 227H1 antibody was detected with a biotinylated unrelated anti-cMet antibody. Purified murine 227H1 monoclonal antibody, chimeric and HZ4VH-derived humanized 227H1-derived recombinant antibodies were tested and compared for their abilities to compete with HGF-cMet binding when measured at 450 nm;
Humanization of the anti-cMet antibodies were performed independently for each chain and sequentially, regarding to the analysed amino acids in each variable domain. The humanization process was evaluated in a first attempt in an ELISA-based binding assay to recombinant Fc-cMet; binding activities the humanized antibodies being compared to the recombinant chimeric antibody. In a second attempt, anti-cMet humanized antibodies were evaluated for their abilities to displace the Fc-cMet binding onto plastic-coated recombinant HGF; this competition assay allowing the direct comparison of murine, chimeric and humanized versions of the anti-cMet antibodies.
These two assays were used to characterize the recombinant chimeric and humanized versions of the murine anti-cMet antibodies. To this end, briefly, anti-cMet variable domains, either murine or humanized, were cloned into LONZA's pCONplus expression vectors series and recombinant IgG1/κ-derived antibodies were expressed in CHO cells. […] Both direct binding and HGF-competition assays were assessed to better characterize recombinant chimeric or humanized versions.

HUVEC = HUVEC proliferation ([3H]thymidine); assay type: cell-based; conditions: HGF 20 ng/ml, 0.15 to 40 μg/ml
Experimental: For proliferation experiments, 7500 HUVEC were plated in each well of a 96 well plate previously coated with laminin. Cells were grown 24 hours of EMB-2 assay medium supplemented with 0.5% FBS and heparin. Then, MAbs to be tested (0.15 to 40 μg/ml) were added for 1 h before addition of 20 ng/ml of HGF. After 24 additional hours, cells were pulsed with 0.5 μCi of [^3H] Thymidine. The magnitude of [^3H] Thymidine incorporated was quantified by liquid scintillation counting. In This experiment the 9G4 MAb is an irrelevant antibody used as an IgG1 isotype control.

Sequence of c-Met (P08581 25-307 limits assumed): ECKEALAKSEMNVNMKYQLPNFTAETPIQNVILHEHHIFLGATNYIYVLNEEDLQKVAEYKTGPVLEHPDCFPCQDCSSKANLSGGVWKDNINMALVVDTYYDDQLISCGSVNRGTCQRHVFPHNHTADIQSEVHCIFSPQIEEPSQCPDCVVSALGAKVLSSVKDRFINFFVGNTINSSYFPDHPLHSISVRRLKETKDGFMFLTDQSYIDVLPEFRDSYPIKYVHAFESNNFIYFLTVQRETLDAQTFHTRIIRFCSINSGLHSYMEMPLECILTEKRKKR
Sequence of c-Met (P08581 308-932 limits assumed): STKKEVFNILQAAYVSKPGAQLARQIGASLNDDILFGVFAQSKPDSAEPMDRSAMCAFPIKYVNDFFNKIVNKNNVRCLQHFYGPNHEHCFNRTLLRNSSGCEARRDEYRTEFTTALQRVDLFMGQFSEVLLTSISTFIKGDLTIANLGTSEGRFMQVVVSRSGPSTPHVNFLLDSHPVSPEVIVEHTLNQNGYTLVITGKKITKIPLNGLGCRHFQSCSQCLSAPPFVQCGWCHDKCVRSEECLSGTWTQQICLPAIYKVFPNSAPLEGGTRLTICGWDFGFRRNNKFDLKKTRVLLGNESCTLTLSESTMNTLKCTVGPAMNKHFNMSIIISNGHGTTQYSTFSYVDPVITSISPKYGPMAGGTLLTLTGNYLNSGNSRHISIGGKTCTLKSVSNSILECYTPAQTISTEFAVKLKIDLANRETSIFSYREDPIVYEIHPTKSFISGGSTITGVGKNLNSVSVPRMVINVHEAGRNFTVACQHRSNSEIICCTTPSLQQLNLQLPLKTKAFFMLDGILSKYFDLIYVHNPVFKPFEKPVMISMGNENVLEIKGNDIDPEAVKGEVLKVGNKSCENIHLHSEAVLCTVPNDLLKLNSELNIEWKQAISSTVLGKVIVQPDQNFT

binding to SEMA domain (SEMA domain) | maximum of HGF binding displacement (HGF-cMet; at high antibody concentration) | Molecule | inhibition of dimerization (c-Met) | HGF-cMet binding competition activity (HGF-cMet) | inhibition of HGF-induced HUVEC proliferation (HUVEC)
did not bind | – | 223C4: murine anti-c-Met monoclonal antibody, IgG1 kappa; heavy chain SEQ ID No. 20, light chain SEQ ID No. 23 (antibody, V domains shown, mus musculus) VH: EVLLQQSGPELVKPGASVKIPCKASGYTFTDYNMDWVKQSHGMSLEWIGDINPNNGGTIFNQKFKGKATLTVDKSSSTAYMELRSLTSEDTAVYYCARGRYVGYYYAMDYWGQGTSVTVSS VL: DIQMTQSPASLSVSVGETVTITCRASENIYSNLAWYQQKQGKSPQLLVYAATNLVDGVPSRFSGSGSGTQYSLKINSLQSEDFGSYYCQHFWGPPYTFGGGTKLEIK | 55% | – | –
able to bind | – | 11E1: murine anti-c-Met monoclonal antibody, IgG1 kappa; heavy chain SEQ ID No. 62, light chain SEQ ID No. 63 (antibody, V domains shown, mus musculus) VH: QVQLQQSGAELAKPGASVKMSCKASGYTFTSYWMNWVKQRPGQGLEWIGYINPTTGSTDYNQKLKDKATLTADKSSNTAYMQLSSLTSEDSAVYYCAIGGYGSWFAYWGQGTLVTVSA VL: QIVLTQSPAIMSASPGEKVTLTCSASSSVSSTYLYWYQQKPGSSPKLWIYTTSILASGVPARFSGSGSGTSYSLTISSMETEDAASYFCHQWSSYPFTFGSGTKLDIK | 69% | moderate, not full but reliable competitive activity | dramatic dose dependent inhibition
did not bind | 100% | 224G11: murine anti-c-Met monoclonal antibody, IgG1 kappa; heavy chain SEQ ID No. 18, light chain SEQ ID No. 21 (antibody, V domains shown, mus musculus) VH: EVQLQQSGPELVKPGASVKISCKTSGYIFTAYTMHWVRQSLGESLDWIGGIKPNNGLANYNQKFKGKATLTVDKSSSTAYMDLRSLTSEDSAVYYCARSEITTEFDYWGQGTALTVSS VL: DIVLTQSPASLAVSLGQRATISCRASESVDSYANSFMHWYQQKPGQPPKLLIYRASNLESGIPARFSGSGSRTDFTLTINPVEADDVATYYCQQSKEDPLTFGSGTKLEMK | 32% | – | dramatic dose dependent inhibition
